B1: wild Bactrian camel ACE2 ectodomain fused with mFc (Fc fusion)
chain: QSTTEELAKTFLEEFNHEAEDLSYQSSLASWNYNTNITDENVQKMNDARAKWSTFYEEKSKTAKTYPLEEIQNVTLKRQLQALQQSGASALSADKSKRLTTVLSTMSTIYSSGEVCDPNNPQECLVLEPGLDDIMENSKDYNQRLWAWEGWRAEVGKQLRPLYEEYVVLKNEMARANNYEDYGDYWRGDYEVMWAGDYDYSRDQLMGDVEHTFAEIKPLYEHLHAYVRAKLMDVYPSHISPTGCLPAHLLGDMWGRFWTNLYSLTVPFGQKPNIDVTEAMENQSWDAKRIFKEAEKFFVSIGLPNMTQGFWDNSMLTEPGDGRKVVCHPTAWDLGKGDFRIKMCTKVTMDDFLTAHHEMGHIQYDMAYAIQPFLLRNGANEGFHEAVGEIMSLSAATPHYLKALGLLPADFYEDSETEINFLLKQALTIVGTLPFTYMLEKWRWMVFKGEIPKEQWMQKWWEMKREIVGVVEPLPHDETYCDPACLFHVAEDYSFIRYYTRTIYQFQFHEALCQIAKHEGPLYKCDISNSTEAGQKLLQMLSLGKSEPWTLALEGLVGVKTMDVKPLLNYFEPLLTWLKDQNRNSFVGWSTDWTPYTDQSIKVRISLKSALGDKAYEWNDNEMYLFQSSLAYAMRKYFLKVQNQTILFGVEDVWVSDLKPRISFSFFVTSPKNVSDIIPRTEVEEAIRMSRSRINDAFRLDDNSLEFLGIQPTLGPPYEPP
B2: sheep ACE2 ectodomain fused with mFc (Fc fusion)
chain: QSTTEGQAKTFLEKFNHEAEDLSYQSSLASWNYNTNITDENVQKMNEARAKWSAFYEEQSRMARTYSLEEIQNLTLKRQLKALQHSGTSVLSAEKSKRLNTILNKMSTIYSTGKVLDPNTQECLALEPGLDDIMENSRDYNRRLWAWEGWRAEVGKQLRPLYEEYVVLENEMARANNYEDYGDYWRGDYEVTGAGDYDYSRDQLMKDVERTFEEIKPLYEQLHAYVRAKLMDTYPSYISPTGCLPAHLLGDMWGRFWTNLYSLTVPFEHKPSIDVTEKMKNQSWDAERIFKEAEKFFVSIGLPYMTQGFWDNSMLTEPGDGRKVVCHPTAWDLGKGDFRIKMCTKVTMDDFLTAHHEMGHIQYDMAYATQPYLLRNGANEGFHEAVGEIMSLSAATPHYLKALGLLAPDFYEDNETEINFLLKQALTIVGTLPFTYMLEKWRWMVFKGEIPKQQWMEKWWEMKREIVGVVEPLPHDETYCDPACLFHVAEDYSFIRYYTRTIYQFQFHEALCKTAKHEGALFKCDISNSTEAGQRLLQMLRLGKSEPWTLALENIVGIKTMDVKPLLNYFEPLFTWLKEQNRNSFVGWSTEWTPYSDQSIKVRISLKSALGENAYEWNDNEMYLFRSSVAYAMRKYFLKERNETIPFGEENVWVSDKKPRISFKFFVTSPNNVSDIIPRTEVENAIRLCRDRINDAFQLDDNSLEFLGIQPTLRPPYEPP
B3: golden hamster ACE2 ectodomain fused with mFc (Fc fusion)
chain: QSIIEEQAKTFLDKFNQEAEDLSYQSALASWNYNTNITEENAQKMNEAAAKWSAFYEEQSKLAKNYSLQEVQNLTIKRQLQALQQSGSSALSADKNKQLNTILNTMSTIYSTGKVCNPKNPQECLLLEPGLDDIMATSTDYNERLWAWEGWRAEVGKQLRPLYEEYVVLKNEMARANNYEDYGDYWRGDYEAEGADGYNYNGNQLIEDVERTFKEIKPLYEQLHAYVRTKLMNTYPSYISPTGCLPAHLLGDMWGRFWTNLYPLTVPFGQKPNIDVTDAMVNQGWNAERIFKEAEKFFVSVGLPYMTQGFWENSMLTDPGDDRKVVCHPTAWDLGKGDFRIKMCTKVTMDNFLTAHHEMGHIQYDMAYATQPFLLRNGANEGFHEAVGEIMSLSAATPEHLKSIGLLPSDFQEDNETEINFLLKQALTIVGTLPFTYMLEKWRWMVFKGDIPKEQWMEKWWEMKREIVGVVEPLPHDETYCDPAALFHVSNDYSFIRYYTRTIYQFQFQEALCQAAKHDGPLHKCDISNSTEAGQKLLNMLRLGKSEPWTLALENVVGARNMDVRPLLNYFEPLSVWLKEQNKNSFVGWNTDWSPYADQSIKVRISLKSALGENAYEWDDNEMYLFRASVAYAMRVYFAKNKTQTVPFGVEDIRVSDLKPRVSFNFFVTSPQNVSDIIPRNEVEEAVRLSRGRINDVFGLDDNSLEFLGINPTLSPPYQPPVT

These binders were tested against SARS-CoV-2 PT-RBD (SARS-CoV-2 prototype, UniProt P0DTC2) (assay: SPR).

Row | Binder | Kd [nM]
1 | B1 | 993
2 | B2 | 171
3 | B3 | 71.8
